Laboratory results: publication PMC4014439, “Mlh2 Is an Accessory Factor for DNA Mismatch Repair in Saccharomyces cerevisiae” (PLoS Genetics, 2014)

B1: S. cerevisiae Mlh1-Pms1 complex (complex)
chain 1: MSLRIKALDASVVNKIAAGEIIISPVNALKEMMENSIDANATMIDILVKEGGIKVLQITDNGSGINKADLPILCERFTTSKLQKFEDLSQIQTYGFRGEALASISHVARVTVTTKVKEDRCAWRVSYAEGKMLESPKPVAGKDGTTILVEDLFFNIPSRLRALRSHNDEYSKILDVVGRYAIHSKDIGFSCKKFGDSNYSLSVKPSYTVQDRIRTVFNKSVASNLITFHISKVEDLNLESVDGKVCNLNFISKKSISPIFFINNRLVTCDLLRRALNSVYSNYLPKGNRPFIYLGIVIDPAAVDVNVHPTKREVRFLSQDEIIEKIANQLHAELSAIDTSRTFKASSISTNKPESLIPFNDTIESDRNRKSLRQAQVVENSYTTANSQLRKAKRQENKLVRIDASQAKITSFLSSSQQFNFEGSSTKRQLSEPKVTNVSHSQEAEKLTLNESEQPRDANTINDNDLKDQPKKKQKLGDYKVPSIADDEKNALPISKDGYIRVPKERVNVNLTSIKKLREKVDDSIHRELTDIFANLNYVGVVDEERRLAAIQHDLKLFLIDYGSVCYELFYQIGLTDFANFGKINLQSTNVSDDIVLYNLLSEFDELNDDASKEKIISKIWDMSSMLNEYYSIELVNDGLDNDLKSVKLKSLPLLLKGYIPSLVKLPFFIYRLGKEVDWEDEQECLDGILREIALLYIPDMVPKVDTSDASLSEDEKAQFINRKEHISSLLEHVLFPCIKRRFLAPRHILKDVVEIANLPDLYKVFERC
chain 2: MTQIHQINDIDVHRITSGQVITDLTTAVKELVDNSIDANANQIEIIFKDYGLESIECSDNGDGIDPSNYEFLALKHYTSKIAKFQDVAKVQTLGFRGEALSSLCGIAKLSVITTTSPPKADKLEYDMVGHITSKTTTSRNKGTTVLVSQLFHNLPVRQKEFSKTFKRQFTKCLTVIQGYAIINAAIKFSVWNITPKGKKNLILSTMRNSSMRKNISSVFGAGGMRGLEEVDLVLDLNPFKNRMLGKYTDDPDFLDLDYKIRVKGYISQNSFGCGRNSKDRQFIYVNKRPVEYSTLLKCCNEVYKTFNNVQFPAVFLNLELPMSLIDVNVTPDKRVILLHNERAVIDIFKTTLSDYYNRQELALPKRMCSQSEQQAQKRLKTEVFDDRSTTHESDNENYHTARSESNQSNHAHFNSTTGVIDKSNGTELTSVMDGNYTNVTDVIGSECEVSVDSSVVLDEGNSSTPTKKLPSIKTDSQNLSDLNLNNFSNPEFQNITSPDKARSLEKVVEEPVYFDIDGEKFQEKAVLSQADGLVFVDNECHEHTNDCCHQERRGSTDTEQDDEADSIYAEIEPVEINVRTPLKNSRKSISKDNYRSLSDGLTHRKFEDEILEYNLSTKNFKEISKNGKQMSSIISKRKSEAQENIIKNKDELEDFEQGEKYLTLTVSKNDFKKMEVVGQFNLGFIIVTRKVDNKYDLFIVDQHASDEKYNFETLQAVTVFKSQKLIIPQPVELSVIDELVVLDNLPVFEKNGFKLKIDEEEEFGSRVKLLSLPTSKQTLFDLGDFNELIHLIKEDGGLRRDNIRCSKIRSMFAMRACRSSIMIGKPLNKKTMTRVVHNLSELDKPWNCPHGRPTMRHLMELRDWSSFSKDYEI
notes: Mlh1, S. cerevisiae, expressed from pRDK573 (pGAL1-10-MLH1 TRP1); Pms1, S. cerevisiae, expressed from pRDK1099 (pGAL1-10-PMS1-FLAG LEU2); also called Mlh1-Pms1 heterodimer
B2: S. cerevisiae Mlh1-Mlh2 complex (complex)
chain 1: MSLRIKALDASVVNKIAAGEIIISPVNALKEMMENSIDANATMIDILVKEGGIKVLQITDNGSGINKADLPILCERFTTSKLQKFEDLSQIQTYGFRGEALASISHVARVTVTTKVKEDRCAWRVSYAEGKMLESPKPVAGKDGTTILVEDLFFNIPSRLRALRSHNDEYSKILDVVGRYAIHSKDIGFSCKKFGDSNYSLSVKPSYTVQDRIRTVFNKSVASNLITFHISKVEDLNLESVDGKVCNLNFISKKSISPIFFINNRLVTCDLLRRALNSVYSNYLPKGNRPFIYLGIVIDPAAVDVNVHPTKREVRFLSQDEIIEKIANQLHAELSAIDTSRTFKASSISTNKPESLIPFNDTIESDRNRKSLRQAQVVENSYTTANSQLRKAKRQENKLVRIDASQAKITSFLSSSQQFNFEGSSTKRQLSEPKVTNVSHSQEAEKLTLNESEQPRDANTINDNDLKDQPKKKQKLGDYKVPSIADDEKNALPISKDGYIRVPKERVNVNLTSIKKLREKVDDSIHRELTDIFANLNYVGVVDEERRLAAIQHDLKLFLIDYGSVCYELFYQIGLTDFANFGKINLQSTNVSDDIVLYNLLSEFDELNDDASKEKIISKIWDMSSMLNEYYSIELVNDGLDNDLKSVKLKSLPLLLKGYIPSLVKLPFFIYRLGKEVDWEDEQECLDGILREIALLYIPDMVPKVDTSDASLSEDEKAQFINRKEHISSLLEHVLFPCIKRRFLAPRHILKDVVEIANLPDLYKVFERC
chain 2: MTIHQLSPESQWKIVSSSFIYGPVAAVRELLDNSIDSGAKKVFIDVDSTTGGCEYISVKDDGSGVDIIDRPSMCLEYTTSKMSSLGDISILTTLGFRGEALFLLSNLCNQKGSMQVETKTADDVIGEKWLVDSKGGITNGKRYKVSCPVGTTVILRKLLGGLRARYLEISSRPRKTFDELIYLINHYSLIHRNIRFYFSLVSLQKNGAIERKQMQETLDPKISRARSLSLLARLKKPVPLNFIVEENFVIDEKINLDLILPRMVPESDVINIKRRFKFLSVNERALSLNLETGKTISKLLSSIYRDFSLLDPMVWFINLNCDTKLLDVNIEPEKNDVMIKSFEVIFKKIENKLKLLLEERIGIETNMLGDKHVQPSINEKTSPALVIPTPDAENEISKGCGAVSGKDKTDIPQKNSDLIVPTFYDEANLENTTIVAATPSPTKFSEDKALDEQTQLTISSYRSSSSGSMASEDSTNWRHNFQQELSENSEVAGAGSSTLPSSLTYNYIETIPENEDLELSKDASISNPFMITKIRNVNKKLSENLLEAKRTSCGDANKRGMPNERQLSNTEKKELIKLQQTYGKRNNTVDMTIPRNSKKKVTDNYIKKASCMHKTRPKLMHFSEYTNNYVYTLKNEKIVKHDSDNFAKETLWLRSRDDATSPSSSLLQALRAHVKKPGHIEATTNEWCLFTPDSP
notes: Mlh1, S. cerevisiae, expressed from pRDK573 (pGAL1-10-MLH1 TRP1); Mlh2, S. cerevisiae, MLH2 ORF put in place of the PMS1 ORF of pRDK1099, giving pRDK1664 (pGAL1-10-Mlh2-FLAG LEU2); Purified as a preformed complex through the FLAG tag on Mlh2; used at 40 nM in the SPR assay; also called Mlh1-Mlh2 heterodimer

Key:
[1] = molecular target: T1, S. cerevisiae wild type Msh2-Msh6 (S. cerevisiae, UniProt P25847 1-964; Q03834 1-1242); test: SPR; Biacore T100, 25°C; biotinylated 236 bp DNA (GC base pair, central TG mispair or +T insertion, lacO end blocked by 30 nM LacI) on a streptavidin SA chip; 20 nM Msh2-Msh6 or Msh2-Msh3 with 250 µM ATP injected for 100 s, then the same mixture with 40 nM Mlh1-Pms1 or Mlh1-Mlh2 for 150 s; 25 mM Tris-Cl pH 8.0, 4 mM MgCl2, 110 mM NaCl, 0.01% Igepal, 2 mM DTT, 2% glycerol; signal of the MutL homolog on DNA alone …; settings: both partners purified
T1 construct: Msh2, S. cerevisiae, wild type, from the pET11 MSH2-MSH6 plasmid; Msh6, S. cerevisiae, wild type, from the pET11 MSH2-MSH6 plasmid; also called Msh2-Msh6 heterodimer; source: E. coli BL21 (DE) RIL, pET11 MSH2-MSH6 plasmid, purified according to a previously published procedure

S. cerevisiae Msh2-Msh3 = molecular target: T2, S. cerevisiae Msh2-Msh3 (S. cerevisiae, UniProt P25847 1-964; P25336 1-1018); test: as above; settings: both partners purified
T2 construct: Msh2, S. cerevisiae, expressed from pRDK354 (pGAL1-10-MSH2 URA3); Msh3, S. cerevisiae, expressed from pRDK1596 (pGAL1-10 MSH3-FLAG LEU2); also called Msh2-Msh3 heterodimer; source: S. cerevisiae RDKY2418 with pRDK354 and pRDK1596, purified as described previously
T2 sequence (P25847 whole entry, chain 1 of 2): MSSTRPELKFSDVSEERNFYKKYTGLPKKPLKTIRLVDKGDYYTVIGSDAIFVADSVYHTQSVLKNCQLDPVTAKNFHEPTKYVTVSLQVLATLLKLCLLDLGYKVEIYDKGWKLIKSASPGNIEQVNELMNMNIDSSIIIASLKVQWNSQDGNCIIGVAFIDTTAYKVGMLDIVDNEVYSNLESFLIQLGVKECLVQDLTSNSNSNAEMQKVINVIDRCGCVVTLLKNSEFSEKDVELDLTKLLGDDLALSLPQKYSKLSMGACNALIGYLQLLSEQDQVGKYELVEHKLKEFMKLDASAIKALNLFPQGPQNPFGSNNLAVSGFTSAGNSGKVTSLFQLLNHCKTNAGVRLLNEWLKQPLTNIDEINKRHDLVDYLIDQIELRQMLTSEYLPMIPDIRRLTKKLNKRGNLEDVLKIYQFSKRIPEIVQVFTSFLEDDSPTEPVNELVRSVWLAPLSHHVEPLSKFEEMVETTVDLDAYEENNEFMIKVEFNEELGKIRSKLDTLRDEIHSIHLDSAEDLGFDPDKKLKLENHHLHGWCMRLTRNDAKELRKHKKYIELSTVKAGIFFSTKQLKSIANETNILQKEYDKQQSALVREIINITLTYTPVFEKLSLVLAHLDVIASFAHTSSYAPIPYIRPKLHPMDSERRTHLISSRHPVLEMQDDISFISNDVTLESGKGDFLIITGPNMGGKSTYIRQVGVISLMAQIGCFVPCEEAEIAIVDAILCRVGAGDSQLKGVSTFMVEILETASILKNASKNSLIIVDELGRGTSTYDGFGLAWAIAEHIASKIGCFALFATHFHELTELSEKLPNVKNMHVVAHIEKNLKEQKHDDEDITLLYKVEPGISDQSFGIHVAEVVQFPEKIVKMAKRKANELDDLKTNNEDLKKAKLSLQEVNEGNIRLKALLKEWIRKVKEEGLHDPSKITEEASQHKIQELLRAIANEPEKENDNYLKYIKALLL
T2 sequence (P25336 whole entry, chain 2 of 2): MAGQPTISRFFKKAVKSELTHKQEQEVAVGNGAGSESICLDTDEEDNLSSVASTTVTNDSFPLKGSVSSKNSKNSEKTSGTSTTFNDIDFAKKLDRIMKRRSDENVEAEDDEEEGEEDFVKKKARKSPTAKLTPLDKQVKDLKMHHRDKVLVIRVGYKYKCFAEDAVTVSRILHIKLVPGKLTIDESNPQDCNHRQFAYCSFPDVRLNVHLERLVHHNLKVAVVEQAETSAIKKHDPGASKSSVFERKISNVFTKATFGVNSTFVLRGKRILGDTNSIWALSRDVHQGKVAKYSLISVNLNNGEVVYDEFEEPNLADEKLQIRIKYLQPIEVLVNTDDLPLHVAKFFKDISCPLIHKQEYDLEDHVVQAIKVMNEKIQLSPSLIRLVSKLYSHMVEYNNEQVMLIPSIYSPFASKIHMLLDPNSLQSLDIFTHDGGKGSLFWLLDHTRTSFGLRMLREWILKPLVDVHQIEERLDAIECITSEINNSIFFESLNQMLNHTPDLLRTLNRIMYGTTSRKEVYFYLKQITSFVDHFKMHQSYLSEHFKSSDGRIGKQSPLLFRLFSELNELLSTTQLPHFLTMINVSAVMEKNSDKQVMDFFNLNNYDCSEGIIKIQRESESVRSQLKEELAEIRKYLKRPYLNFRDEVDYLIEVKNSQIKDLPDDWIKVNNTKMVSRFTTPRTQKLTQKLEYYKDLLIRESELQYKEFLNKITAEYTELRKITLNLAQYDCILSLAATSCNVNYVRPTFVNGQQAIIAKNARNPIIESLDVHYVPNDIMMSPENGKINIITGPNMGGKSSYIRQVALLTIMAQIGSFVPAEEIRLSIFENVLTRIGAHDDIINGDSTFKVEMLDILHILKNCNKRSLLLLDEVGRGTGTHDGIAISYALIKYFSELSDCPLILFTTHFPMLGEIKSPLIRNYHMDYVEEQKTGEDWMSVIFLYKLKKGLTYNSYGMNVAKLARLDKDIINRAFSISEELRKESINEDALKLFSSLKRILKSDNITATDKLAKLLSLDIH

T1 sequence (P25847 whole entry, chain 1 of 2): as the sequence (P25847 whole entry, chain 1 of 2) above
T1 sequence (Q03834 whole entry, chain 2 of 2): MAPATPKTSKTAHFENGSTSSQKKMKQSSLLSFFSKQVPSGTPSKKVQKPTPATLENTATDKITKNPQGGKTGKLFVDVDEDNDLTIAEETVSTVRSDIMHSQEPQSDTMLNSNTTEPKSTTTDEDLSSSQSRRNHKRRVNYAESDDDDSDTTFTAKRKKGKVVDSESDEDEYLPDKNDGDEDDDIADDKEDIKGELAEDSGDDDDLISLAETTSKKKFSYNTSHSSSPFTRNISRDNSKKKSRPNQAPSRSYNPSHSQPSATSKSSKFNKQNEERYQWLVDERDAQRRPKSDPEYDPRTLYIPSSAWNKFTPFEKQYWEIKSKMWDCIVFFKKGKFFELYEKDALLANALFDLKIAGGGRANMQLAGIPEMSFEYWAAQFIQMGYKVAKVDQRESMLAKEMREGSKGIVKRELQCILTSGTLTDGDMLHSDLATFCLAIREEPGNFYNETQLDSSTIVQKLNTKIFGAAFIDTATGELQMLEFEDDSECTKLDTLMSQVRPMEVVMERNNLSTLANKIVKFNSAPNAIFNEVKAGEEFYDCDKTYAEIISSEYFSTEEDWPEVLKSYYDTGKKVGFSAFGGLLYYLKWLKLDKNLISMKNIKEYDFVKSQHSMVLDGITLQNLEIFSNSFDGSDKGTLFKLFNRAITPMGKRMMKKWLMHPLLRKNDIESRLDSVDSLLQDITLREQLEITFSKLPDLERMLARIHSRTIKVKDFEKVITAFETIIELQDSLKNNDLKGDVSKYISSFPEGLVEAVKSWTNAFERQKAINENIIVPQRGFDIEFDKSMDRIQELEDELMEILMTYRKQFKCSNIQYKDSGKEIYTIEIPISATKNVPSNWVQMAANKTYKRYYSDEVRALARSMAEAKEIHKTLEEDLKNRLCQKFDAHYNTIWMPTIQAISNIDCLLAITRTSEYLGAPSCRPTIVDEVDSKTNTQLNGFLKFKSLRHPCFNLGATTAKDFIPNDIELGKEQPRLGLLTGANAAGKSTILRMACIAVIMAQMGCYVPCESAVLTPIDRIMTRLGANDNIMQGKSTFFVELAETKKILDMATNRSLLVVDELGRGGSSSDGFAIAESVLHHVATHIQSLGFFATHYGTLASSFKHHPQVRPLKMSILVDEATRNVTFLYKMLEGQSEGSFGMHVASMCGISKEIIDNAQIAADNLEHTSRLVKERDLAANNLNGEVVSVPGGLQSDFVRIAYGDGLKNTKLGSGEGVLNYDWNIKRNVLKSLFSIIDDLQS

Row | binding result [1] | binding result (S. cerevisiae Msh2-Msh3) | Binder
1 | binds | binds | B1
2 | binds | binds | B2
